Paper PMC2119237
Where no end group is shown, it is not given here. The star is where a group is joined. AMCA = 7-amino-4-methyl-coumarin-3-acetic acid, Cc1c(CC(=O)*)c(=O)oc2cc(N)ccc12

Molecular target: HLA-DR1 (human (endogenous in WT-100))
Experiment: SEC

B1: AMCA-SP3(1-16), synthetic self-peptide SP3 labelled at the NH2 terminus (peptide)
peptide: {AMCA}-AILEFRAMAQFSRKTD
binding capacity relative to IM(18-29): 3 fold
